For the data set, the target named is His6-eIF4A1 (UniProt P60843 1-406). Description: fluorescence polarization. Background: In fluorescence polarisation assays a small probe gives low polarisation when free and higher when bound to something large.
His6-eIF4A1, sequence (P60843 whole entry): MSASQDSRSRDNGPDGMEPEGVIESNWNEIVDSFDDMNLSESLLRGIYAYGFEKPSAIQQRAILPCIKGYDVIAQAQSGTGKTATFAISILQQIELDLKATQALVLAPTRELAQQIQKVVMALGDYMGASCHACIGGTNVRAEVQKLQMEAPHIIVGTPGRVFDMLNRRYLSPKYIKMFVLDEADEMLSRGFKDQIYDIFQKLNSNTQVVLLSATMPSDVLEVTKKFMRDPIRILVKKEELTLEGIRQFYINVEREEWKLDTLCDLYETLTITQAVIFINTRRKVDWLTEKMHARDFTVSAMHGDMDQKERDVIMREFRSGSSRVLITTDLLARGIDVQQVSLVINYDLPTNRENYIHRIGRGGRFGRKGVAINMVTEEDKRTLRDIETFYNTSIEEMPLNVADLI

With AGAGAGAGAGAGAGAG (ssRNA) [r(AG)8], the binding result is recorded as “binds”.
